From paper PMC5042403, “Arabidopsis CaM1 and CaM4 Promote Nitric Oxide Production and Salt Resistance by Inhibiting S-Nitrosoglutathione Reductase via Direct Binding” (PLoS Genetics, 2016)

Biological target: T1, GST-GSNOR (GST-tagged full-length GSNOR) (Arabidopsis thaliana, UniProt Q96533 1-379)
T1 construct: Arabidopsis thaliana S-nitrosoglutathione reductase (GSNOR, At5g43940), full-length cDNA; source: E. coli BL21, purified
Experiment: far-Western, overlay or dot blot; 1 μg of each purified GST fusion protein separated by 10% SDS-PAGE and transferred to a PVDF membrane; blot probed with 1 μg CaM4-His in 10 ml TBST with 0.1 mM CaCl2 (or 0.1 mM EGTA, with which the binding became weaker); detected with anti-His antibody
Conditions: both partners purified

T1 sequence (Q96533 whole entry): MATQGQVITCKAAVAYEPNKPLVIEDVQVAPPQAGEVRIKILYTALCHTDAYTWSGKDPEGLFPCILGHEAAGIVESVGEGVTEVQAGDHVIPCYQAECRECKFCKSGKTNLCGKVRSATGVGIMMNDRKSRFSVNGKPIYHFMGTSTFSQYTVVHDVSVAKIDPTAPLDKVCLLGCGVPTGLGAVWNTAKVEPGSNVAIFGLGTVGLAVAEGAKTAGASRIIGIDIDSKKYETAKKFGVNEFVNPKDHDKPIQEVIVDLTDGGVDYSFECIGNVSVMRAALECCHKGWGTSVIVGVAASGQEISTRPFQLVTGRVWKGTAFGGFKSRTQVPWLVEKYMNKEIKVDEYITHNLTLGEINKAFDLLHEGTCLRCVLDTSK

B1: CaM4-His (natural protein)
chain: not shown
notes: Arabidopsis thaliana calmodulin 4 (AtCaM4, At1g66410); AtCaM1 and AtCaM4 encode the same protein; also called CaM-His; AtCaM4; source: E. coli BL21, purified; not shown: His6, C-terminal, kept
binding result: binds
